Measured values: US20260234269A1

Experiments:
[1] = molecular target: human Gal9 protein (R&D systems) (human) (UniProt O00182); test: ELISA, hGal9 coated, mTIM-3 Fc with or without 25 mM lactose
[2] = molecular target: mouse Gal3 on mouse cells (B16F10 tumor cells, RAW264.7 macrophages) (mouse) (UniProt P16110); test: flow cytometry, B16F10 cells
Chain of mouse Gal3 on mouse cells (B16F10 tumor cells, RAW264.7 macrophages) (mouse) (P16110 2-264): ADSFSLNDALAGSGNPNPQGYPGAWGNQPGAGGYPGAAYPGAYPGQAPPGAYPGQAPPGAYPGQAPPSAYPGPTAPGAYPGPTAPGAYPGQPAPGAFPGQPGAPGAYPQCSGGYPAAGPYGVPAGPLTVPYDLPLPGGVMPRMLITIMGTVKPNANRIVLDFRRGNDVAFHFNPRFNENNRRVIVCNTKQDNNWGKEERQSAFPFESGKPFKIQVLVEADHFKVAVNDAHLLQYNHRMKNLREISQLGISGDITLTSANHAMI

Chain of human Gal9 protein (R&D systems) (human) (O00182 other isoform, or with tags, fused parts or gaps limits assumed): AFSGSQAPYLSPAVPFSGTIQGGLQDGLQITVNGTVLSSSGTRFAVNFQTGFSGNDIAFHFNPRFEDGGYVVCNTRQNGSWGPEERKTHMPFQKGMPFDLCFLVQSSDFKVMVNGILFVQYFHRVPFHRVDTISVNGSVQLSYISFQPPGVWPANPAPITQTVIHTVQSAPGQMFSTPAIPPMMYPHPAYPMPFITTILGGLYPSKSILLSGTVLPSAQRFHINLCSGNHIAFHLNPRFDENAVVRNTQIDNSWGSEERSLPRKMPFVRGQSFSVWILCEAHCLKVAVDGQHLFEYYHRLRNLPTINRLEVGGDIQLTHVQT

fold reduction in signal with 25 mM lactose [1] | MFI, fold over isotype control antibody [2] | Substance
> 10 fold |  | mouse TIM-3 Fc protein (R&D systems) (from UniProt Q8VIM0 20-191) (Fc fusion)
 | 10 fold | rat anti mouse Gal3 PE antibody (Thermo Fisher Scientific)
